Source: paper PMC4981310 (PLoS Pathogens, 2016)

Tested on: Nc1ncnc2c1ncn2[C@@H]1O[C@H](COP(=O)(O)OP(=O)(O)O[C@H]2O[C@H](CO)[C@@H](O)[C@H](O)[C@H]2O)[C@@H](O)[C@H]1O
Assay: purified protein
Conditions: Mg2+ (stimulates kcat) compulsory-order ternary-complex mechanism; ADP-glucose binds before glucose 1-phosphate

GlgA (Mycobacterium tuberculosis H37Rv) showed a Km of 46 ± 4 µM, a Vmax of 21.4 µmol/min/mg and a kcat of 15.4 ± 0.3 s⁻¹.
